{
  "source": "paper PMC3616122",
  "origin": "cited, not measured here",
  "biological_target": "Cul3 NTD (Homo sapiens) (UniProt Q13618)",
  "sequence (Q13618 20-381)": "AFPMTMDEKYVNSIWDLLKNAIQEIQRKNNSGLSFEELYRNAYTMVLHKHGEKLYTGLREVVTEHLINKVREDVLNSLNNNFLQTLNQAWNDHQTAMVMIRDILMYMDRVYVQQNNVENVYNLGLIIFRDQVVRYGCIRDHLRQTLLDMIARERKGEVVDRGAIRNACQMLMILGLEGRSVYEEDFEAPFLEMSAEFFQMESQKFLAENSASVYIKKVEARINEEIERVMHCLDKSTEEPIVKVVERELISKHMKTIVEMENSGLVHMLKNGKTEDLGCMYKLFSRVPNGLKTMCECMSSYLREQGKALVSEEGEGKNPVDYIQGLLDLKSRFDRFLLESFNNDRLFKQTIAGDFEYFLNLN",
  "experiment": "ITC",
  "data": [
    {"substance": "SPOP BTB (from UniProt O43791)", "values": [
      {"measurement": "Kd", "value": 1000, "unit": "µM"}
    ]},
    {"substance": "SPOP BTB-BACK (from UniProt O43791)", "values": [
      {"measurement": "Kd", "value": 0.013, "unit": "µM"}
    ]}
  ]
}
